Source: patent US20240109955A1

Key:
Assay in all cases: cell-based or functional assay
[1] = target: SARS-CoV-2 spike (S) protein, Omicron variant BA.2.12.1 (SARS-CoV-2) (UniProt P0DTC2)
[2] = target: SARS-CoV-2 spike (S) protein, Omicron variant BA.2 (SARS-CoV-2) (UniProt P0DTC2)
[3] = target: SARS-CoV-2 spike (S) protein, Omicron variant BA.1 (SARS-CoV-2) (UniProt P0DTC2)
[4] = target: SARS-CoV-2 spike (S) protein of Omicron sublineage BA.2.75 (G446S) (SARS-CoV-2) (UniProt P0DTC2)
[5] = target: SARS-CoV-2 spike (S) protein of Omicron sublineage BJ.1 (R346T, V445P, G446S) (SARS-CoV-2) (UniProt P0DTC2)
[6] = target: SARS-CoV-2 spike (S) protein of Omicron sublineage BQ.1.1 (R346T, K444T, F486V) (SARS-CoV-2) (UniProt P0DTC2)
[7] = target: SARS-CoV-2 spike protein, Delta variant (B.1.617.2) (SARS-CoV-2)
[8] = target: SARS-CoV-2 spike protein, Beta variant 1 (B.1.351 v1) (SARS-CoV-2)
[9] = target: SARS-CoV-2 spike protein, Mu variant (B.1.621) (SARS-CoV-2)
[10] = target: SARS-CoV-2 spike protein, C.1.2 variant (SARS-CoV-2)
[11] = target: SARS-CoV-2 spike protein, Gamma variant (P.1) (SARS-CoV-2)
[12] = target: SARS-CoV-2 spike protein, Alpha variant (B.1.1.7) (SARS-CoV-2)

Chain of MX412 (A23-58H/B1-182L × A19-61) (bispecific antibody) (chain): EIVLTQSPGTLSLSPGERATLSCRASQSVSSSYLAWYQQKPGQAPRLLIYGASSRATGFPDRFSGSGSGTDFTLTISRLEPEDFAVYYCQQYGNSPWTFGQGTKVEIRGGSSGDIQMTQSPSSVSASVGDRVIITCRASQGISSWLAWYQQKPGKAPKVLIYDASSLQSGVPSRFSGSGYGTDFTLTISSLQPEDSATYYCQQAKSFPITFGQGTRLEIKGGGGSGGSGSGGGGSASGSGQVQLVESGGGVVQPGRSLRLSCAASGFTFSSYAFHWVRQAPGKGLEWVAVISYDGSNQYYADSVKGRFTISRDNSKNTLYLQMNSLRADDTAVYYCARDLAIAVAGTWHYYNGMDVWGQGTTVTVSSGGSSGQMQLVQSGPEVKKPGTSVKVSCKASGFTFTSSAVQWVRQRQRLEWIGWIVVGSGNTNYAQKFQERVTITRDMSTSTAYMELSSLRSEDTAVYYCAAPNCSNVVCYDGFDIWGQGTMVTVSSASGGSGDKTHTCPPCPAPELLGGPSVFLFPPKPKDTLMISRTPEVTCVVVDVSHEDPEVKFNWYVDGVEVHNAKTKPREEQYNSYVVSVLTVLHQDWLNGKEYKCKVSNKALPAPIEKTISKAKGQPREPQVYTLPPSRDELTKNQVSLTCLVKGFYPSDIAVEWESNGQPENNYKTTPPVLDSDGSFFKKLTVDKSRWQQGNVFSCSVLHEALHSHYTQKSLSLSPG
Chain of MX413 (A19-61 × A23-58H/B1-182L) (bispecific antibody) (chain): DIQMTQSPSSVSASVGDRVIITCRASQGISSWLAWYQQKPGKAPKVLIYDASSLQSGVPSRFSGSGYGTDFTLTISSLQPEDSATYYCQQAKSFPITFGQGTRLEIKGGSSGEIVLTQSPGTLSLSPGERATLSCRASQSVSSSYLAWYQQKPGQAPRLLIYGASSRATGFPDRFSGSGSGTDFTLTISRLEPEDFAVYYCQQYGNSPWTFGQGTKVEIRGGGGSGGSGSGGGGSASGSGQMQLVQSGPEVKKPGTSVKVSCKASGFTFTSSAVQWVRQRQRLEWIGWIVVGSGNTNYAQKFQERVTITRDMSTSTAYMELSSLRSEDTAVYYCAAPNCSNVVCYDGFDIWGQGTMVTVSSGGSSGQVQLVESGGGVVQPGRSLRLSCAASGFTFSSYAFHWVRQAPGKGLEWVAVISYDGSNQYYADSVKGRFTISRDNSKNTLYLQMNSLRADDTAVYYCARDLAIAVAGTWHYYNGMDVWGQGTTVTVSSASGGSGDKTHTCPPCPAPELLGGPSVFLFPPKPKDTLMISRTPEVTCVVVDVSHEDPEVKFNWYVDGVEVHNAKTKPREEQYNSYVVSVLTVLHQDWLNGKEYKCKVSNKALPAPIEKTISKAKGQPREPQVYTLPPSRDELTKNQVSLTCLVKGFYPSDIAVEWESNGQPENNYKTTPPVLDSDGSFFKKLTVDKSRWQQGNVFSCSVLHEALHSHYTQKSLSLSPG
Chain of MX180 (B1-182 × A19-46) (bispecific antibody) (chain): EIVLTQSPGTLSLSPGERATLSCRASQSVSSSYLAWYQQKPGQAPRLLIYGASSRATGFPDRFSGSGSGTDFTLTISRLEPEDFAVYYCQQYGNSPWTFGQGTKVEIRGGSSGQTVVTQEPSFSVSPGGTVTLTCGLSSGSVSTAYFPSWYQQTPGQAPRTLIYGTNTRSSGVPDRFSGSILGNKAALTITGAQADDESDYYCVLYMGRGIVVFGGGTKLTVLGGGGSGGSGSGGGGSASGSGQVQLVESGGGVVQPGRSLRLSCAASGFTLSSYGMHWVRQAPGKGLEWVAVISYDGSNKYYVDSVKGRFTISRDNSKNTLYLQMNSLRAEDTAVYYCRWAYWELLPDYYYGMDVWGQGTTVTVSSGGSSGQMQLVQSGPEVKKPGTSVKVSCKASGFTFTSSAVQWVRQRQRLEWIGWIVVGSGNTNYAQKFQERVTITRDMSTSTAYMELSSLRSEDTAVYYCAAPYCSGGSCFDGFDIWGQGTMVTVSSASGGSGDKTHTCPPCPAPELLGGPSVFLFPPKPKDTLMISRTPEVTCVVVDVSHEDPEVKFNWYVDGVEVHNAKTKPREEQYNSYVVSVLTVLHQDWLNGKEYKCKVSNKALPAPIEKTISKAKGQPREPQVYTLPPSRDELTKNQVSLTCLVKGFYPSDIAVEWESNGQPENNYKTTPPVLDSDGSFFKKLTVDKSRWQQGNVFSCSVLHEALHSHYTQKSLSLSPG
Chain of MX492 (A19-46 x A23-58H/B1-182L) bispecific, tetravalent molecule with Fc (bispecific antibody) (chain): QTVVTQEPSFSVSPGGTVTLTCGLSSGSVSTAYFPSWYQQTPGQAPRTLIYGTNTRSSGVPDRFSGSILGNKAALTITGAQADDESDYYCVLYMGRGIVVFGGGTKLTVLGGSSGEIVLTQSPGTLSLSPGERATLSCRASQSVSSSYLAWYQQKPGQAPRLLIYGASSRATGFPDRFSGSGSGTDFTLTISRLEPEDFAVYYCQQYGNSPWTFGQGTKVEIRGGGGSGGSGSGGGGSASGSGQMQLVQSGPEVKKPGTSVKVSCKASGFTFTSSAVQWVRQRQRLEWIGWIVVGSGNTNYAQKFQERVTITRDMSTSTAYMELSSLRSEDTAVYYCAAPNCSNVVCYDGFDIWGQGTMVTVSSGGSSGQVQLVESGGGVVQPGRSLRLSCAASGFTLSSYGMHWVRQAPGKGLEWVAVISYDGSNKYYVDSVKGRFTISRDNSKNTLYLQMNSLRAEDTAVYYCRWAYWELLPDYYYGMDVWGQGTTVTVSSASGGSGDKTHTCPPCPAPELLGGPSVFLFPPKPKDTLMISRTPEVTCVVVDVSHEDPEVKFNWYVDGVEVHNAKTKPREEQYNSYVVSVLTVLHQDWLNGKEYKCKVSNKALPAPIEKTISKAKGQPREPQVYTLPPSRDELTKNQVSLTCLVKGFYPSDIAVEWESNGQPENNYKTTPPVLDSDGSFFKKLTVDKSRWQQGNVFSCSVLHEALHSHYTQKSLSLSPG
Chain of MX179 (A19-46 × B1-182) (bispecific antibody) (chain): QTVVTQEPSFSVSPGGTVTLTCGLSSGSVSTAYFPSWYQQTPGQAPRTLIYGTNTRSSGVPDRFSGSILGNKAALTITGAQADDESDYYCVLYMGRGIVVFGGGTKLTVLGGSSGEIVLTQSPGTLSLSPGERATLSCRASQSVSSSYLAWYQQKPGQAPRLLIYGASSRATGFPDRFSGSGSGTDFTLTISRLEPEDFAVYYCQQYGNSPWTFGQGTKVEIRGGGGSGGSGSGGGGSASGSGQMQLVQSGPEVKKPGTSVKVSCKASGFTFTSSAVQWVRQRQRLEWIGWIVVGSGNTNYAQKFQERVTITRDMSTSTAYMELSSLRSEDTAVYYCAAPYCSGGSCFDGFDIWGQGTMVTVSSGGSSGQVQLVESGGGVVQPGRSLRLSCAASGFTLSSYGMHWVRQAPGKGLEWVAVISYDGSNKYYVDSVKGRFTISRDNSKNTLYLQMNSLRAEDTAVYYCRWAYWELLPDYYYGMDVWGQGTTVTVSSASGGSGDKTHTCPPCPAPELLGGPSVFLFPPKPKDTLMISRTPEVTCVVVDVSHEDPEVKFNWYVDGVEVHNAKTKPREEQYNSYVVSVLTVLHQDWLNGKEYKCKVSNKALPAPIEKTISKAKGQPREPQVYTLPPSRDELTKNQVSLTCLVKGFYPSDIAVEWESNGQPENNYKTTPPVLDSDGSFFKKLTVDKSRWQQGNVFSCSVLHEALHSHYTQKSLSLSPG

| Substance | IC50, pseudovirus neutralization [1] [nM] | IC80, pseudovirus neutralization [1] [nM] | IC50, pseudovirus neutralization [2] [nM] | IC80, pseudovirus neutralization [2] [nM] | IC50, pseudovirus neutralization [3] [nM] | IC80, pseudovirus neutralization [3] [nM] | IC50, pseudovirus neutralization [4] [nM] | IC80, pseudovirus neutralization [4] [nM] | IC50, pseudovirus neutralization [5] [nM] | IC80, pseudovirus neutralization [5] [nM] | IC50, pseudovirus neutralization [6] [nM] | IC80, pseudovirus neutralization [6] [nM] | IC50, pseudovirus neutralization [7] [nM] | IC80, pseudovirus neutralization [7] [nM] | IC50, pseudovirus neutralization [8] [nM] | IC80, pseudovirus neutralization [8] [nM] | IC50, pseudovirus neutralization [9] [nM] | IC80, pseudovirus neutralization [9] [nM] | IC50, pseudovirus neutralization [10] [nM] | IC80, pseudovirus neutralization [10] [nM] | other results |
| --- | --- | --- | --- | --- | --- | --- | --- | --- | --- | --- | --- | --- | --- | --- | --- | --- | --- | --- | --- | --- | --- |
| MX179 (A19-46 × B1-182) (bispecific antibody) | 0.167 | 0.929 | 0.0137 | 0.0389 | 0.0068 | 0.0193 | – | – | – | – | – | – | – | – | – | – | – | – | – | – | – |
| A19-61.1 antibody | – | – | – | – | – | – | > 10000 | > 10000 | > 10000 | > 10000 | > 10000 | > 10000 | – | – | – | – | – | – | – | – | – |
| MX180 (B1-182 × A19-46) (bispecific antibody) | 0.584 | 2.82 | 0.041 | 0.103 | 0.0187 | 0.0652 | – | – | – | – | – | – | – | – | – | – | – | – | – | – | – |
| MX412 (A23-58H/B1-182L × A19-61) (bispecific antibody) | 0.0615 | 0.178 | 0.0304 | 0.0803 | 8.96 | 31.8 | – | – | – | – | – | – | 0.0279 | 0.0625 | 0.0365 | 0.084 | 0.583 | 1.78 | 0.014 | 0.0528 | IC50, pseudovirus neutralization [11]: 0.042 nM; IC80, pseudovirus neutralization [11]: 0.0885 nM; IC50, pseudovirus neutralization [12]: 0.058 nM; IC80, pseudovirus neutralization [12]: 0.143 nM |
| A23-58H/B1-182L mAb (antibody) | 0.83 | 3.27 | 0.544 | 2.48 | 0.364 | 1.39 | – | – | – | – | – | – | 0.0104 | 0.0205 | 0.0305 | 0.0966 | 0.0402 | 0.108 | 0.0207 | 0.0348 | IC50, pseudovirus neutralization [11]: 0.0116 nM; IC80, pseudovirus neutralization [11]: 0.0237 nM; IC50, pseudovirus neutralization [12]: 0.0174 nM; IC80, pseudovirus neutralization [12]: 0.0376 nM |
| MX466 (A23-58H/B1-182L Cl-CH1 Tetravalent) (antibody) | 0.586 | 18 | 2.47 | 44.2 | 0.57 | 8.23 | – | – | – | – | – | – | – | – | – | – | – | – | – | – | – |
| MX409 (A23-58H/B1-182L Tetravalent) (antibody) | 8.96 | 52.7 | 4.9 | > 66.7 | 2.03 | > 66.7 | – | – | – | – | – | – | 0.00313 | 0.00882 | 0.0073 | 0.0175 | 0.0046 | 0.0124 | 0.005 | 0.0099 | IC50, pseudovirus neutralization [11]: 0.00182 nM; IC80, pseudovirus neutralization [11]: 0.00565 nM; IC50, pseudovirus neutralization [12]: 0.0139 nM; IC80, pseudovirus neutralization [12]: 0.0286 nM |
| bebtelovimab (LY1404, LY-CoV1404, LY3853133) (antibody) | – | – | – | – | – | – | 13 | 86 | > 10000 | > 10000 | > 10000 | > 10000 | – | – | – | – | – | – | – | – | – |
| MX413 (A19-61 × A23-58H/B1-182L) (bispecific antibody) | 0.0149 | 0.0614 | 0.0141 | 0.0466 | 6.58 | 20.5 | – | – | – | – | – | – | 0.0193 | 0.0655 | 0.0386 | 0.092 | 0.089 | 0.166 | 0.0109 | 0.026 | IC50, pseudovirus neutralization [11]: 0.025 nM; IC80, pseudovirus neutralization [11]: 0.0547 nM; IC50, pseudovirus neutralization [12]: 0.0547 nM; IC80, pseudovirus neutralization [12]: 0.141 nM |
| MX492 (A19-46 x A23-58H/B1-182L) bispecific, tetravalent molecule with Fc (bispecific antibody) | – | – | – | – | – | – | 3 | 10 | 783 | 2010 | > 10000 | > 10000 | – | – | – | – | – | – | – | – | – |
| MX413 (A19-61 x A23-58H/B1-182L) bispecific, tetravalent molecule with Fc (bispecific antibody) | – | – | – | – | – | – | 21 | 71 | 3210 | > 10000 | > 10000 | > 10000 | – | – | – | – | – | – | – | – | – |
